Measurements: patent publication US20150353933, “APTAMER AGAINST MIDKINE AND APPLICATIONS THEREOF” (RIBOMIC INC., published 2015)
Numbering of substitutions follows the chain as printed.

B1: SEQ ID NO: 7-3 (ssRNA)
RNA: GCCAUCGCAAUGGUGAGUGGUUUAUCCGCCUGCGCAUGGC
modifications: 5' 40PEG2ts; 3' idT; 2'-OMe at 1-13,19,20,23,28,30-40; 2'-F at U14,U18,U21,U22,U25,C26,C27,C29; 2'-OH at G15,A16,G17,A24
B2: SEQ ID NO: 7-4 (ssRNA)
RNA: B1 RNA
modifications: 5' 40PEG2ts; 3' idT; 2'-OMe at C2,C3,C40 and all purines except G15,A16,G17,A24 (2'-OH); 2'-F at all other pyrimidines
B3: SEQ ID NO: 12 (ssRNA)
RNA: CGCAAUGGUGAGUGGUUUAUCCGCCUGCG
modifications: 3' idT; 2'-OMe at 1-8,14,15,18,23,25-29; 2'-F at U9,U13,U16,U17,U20,C21,C22,C24; 2'-OH at G10,A11,G12,A19
B4: SEQ ID NO: 10 (ssRNA)
RNA: GCUCGCAAUGGUGAGUGGUUUAUCCGCCUGCGCAGC
modifications: 3' idT; 2'-OMe at 1-11,17,18,21,26,28-36; 2'-F at U12,U16,U19,U20,U23,C24,C25,C27; 2'-OH at G13,A14,G15,A22
B5: SEQ ID NO: 9 (mixed)
RNA: GCCAUCGCAAUGGUGAGUGGUUUAUCCGCCUGCGCAUGGCAAAAAAAAAAAAAAAA
modifications: 2'-OMe at 1-3 and 38-40; 2'-F at all other pyrimidines; 3' 16-nt poly dA (DNA)
B6: SEQ ID NO: 9-1 (mixed)
RNA: B5 RNA
modifications: 2'-OMe at C2,C3,C40 and RNA purines except G15,A16,G17,A24 (2'-OH); 2'-F at all other pyrimidines; 3' 16-nt poly dA (DNA)
B7: SEQ ID NO: 9-5 (mixed)
RNA: B5 RNA
modifications: 2'-OMe at C2,C3,C40 and RNA purines except G15,A16,G17 (2'-OH); 2'-F at all other pyrimidines; 3' 16-nt poly dA (DNA)
B8: SEQ ID NO: 9-4 (mixed)
RNA: B5 RNA
modifications: 2'-OMe at C2,C3,C40 and RNA purines except G15,A16,A24 (2'-OH); 2'-F at all other pyrimidines; 3' 16-nt poly dA (DNA)
B9: SEQ ID NO: 9-2 (mixed)
RNA: B5 RNA
modifications: 2'-OMe at C2,C3,C40 and RNA purines except A16,G17,A24 (2'-OH); 2'-F at all other pyrimidines; 3' 16-nt poly dA (DNA)
B10: SEQ ID NO: 9-3 (mixed)
RNA: B5 RNA
modifications: 2'-OMe at C2,C3,C40 and RNA purines except G15,G17,A24 (2'-OH); 2'-F at all other pyrimidines; 3' 16-nt poly dA (DNA)
B11: SEQ ID NO: 7-7 (ssRNA)
RNA: B1 RNA
modifications: 3' idT; 2'-OMe at 1-13,16,19,20,23,27,28,30-40; 2'-F at U14,U18,U21,U22,U25,C26,C29; 2'-OH at G15,G17,A24
B12: SEQ ID NO: 7-6 (ssRNA)
RNA: B1 RNA
modifications: 3' idT; 2'-OMe at 1-14,16,19,20,23,28,30-40; 2'-F at U18,U21,U22,U25,C26,C27,C29; 2'-OH at G15,G17,A24
B13: SEQ ID NO: 7-8 (ssRNA)
RNA: B1 RNA
modifications: 3' idT; 2'-OMe at 1-13,16,19,20,23,28-40; 2'-F at U14,U18,U21,U22,U25,C26,C27; 2'-OH at G15,G17,A24
B14: SEQ ID NO: 7-9 (ssRNA)
RNA: B1 RNA
modifications: 3' idT; 2'-OMe at 1-13,16,17,19,20,23,28,30-40; 2'-F at U14,U18,U21,U22,U25,C26,C27,C29; 2'-OH at G15,A24
B15: SEQ ID NO: 7-5 (ssRNA)
RNA: B1 RNA
modifications: 3' idT; 2'-OMe at 1-13,16,19,20,23,28,30-40; 2'-F at U14,U18,U21,U22,U25,C26,C27,C29; 2'-OH at G15,G17,A24
B16: SEQ ID NO: 11 (ssRNA)
RNA: GCGCAAUGGUGAGUGGUUUAUCCGCCUGCGC
modifications: 3' idT; 2'-OMe at 1-10,12,15,16,19,24,26-31; 2'-F at U14,U17,U18,U21,C22,C23,C25; 2'-OH at G11,G13,A20
B17: SEQ ID NO: 11-1 (ssRNA)
RNA: B16 RNA
modifications: 3' idT; 2'-OMe at 1-10,12,15,16,19,23-31; 2'-F at U14,U17,U18,U21,C22; 2'-OH at G11,G13,A20
B18: SEQ ID NO: 1 (ssRNA)
RNA: GGGAGAGGAGAAGAGGAAGCUAUCGCAAUGGUGAGUGGUUUAUCCGCCUGCGCAUGGUUAGAGGACAGGAAUGAGGA
modifications: 2'-F pyrimidines; 16-nt poly A at 3' end for SPR
B19: SEQ ID NO: 8-1 (ssRNA)
RNA: GUCUGUGUGGUUUAUCCGGAC
modifications: 2'-OMe at G1,G9,G10,U13,G18,G19,A20; 2'-F at all other pyrimidines; 2'-OH at G5,G7,A14
B20: SEQ ID NO: 8-3 (ssRNA)
RNA: GUCUGUGUGGUUUAUCCGGAC
modifications: 5' 80PEG4gs; 3' idT; 2'-OMe at G1,G9,G10,U13,G18,G19,A20; 2'-F at other pyrimidines except C21 (unmodified as printed); 2'-OH at G5,G7,A14
B21: SEQ ID NO: 8-5 (ssRNA)
RNA: GUCUGUGUGGUUUAUCCGGAC
modifications: 5' 80PEG4gs; 3' idT; 2'-OMe at 1-3,8-10,13,18-21; 2'-F at U4,U6,U11,U12,U15,C16,C17; 2'-OH at G5,G7,A14
B22: SEQ ID NO: 8-4 (ssRNA)
RNA: GUCUGUGUGGUUUAUCCGGAC
modifications: 5' 80PEG4ts; 3' idT; 2'-OMe at 1-3,8-10,13,18-21; 2'-F at U4,U6,U11,U12,U15,C16,C17; 2'-OH at G5,G7,A14
B23: SEQ ID NO: 8-2 (ssRNA)
RNA: GUCUGUGUGGUUUAUCCGGAC
modifications: 5' 80PEG4ts; 3' idT; 2'-OMe at G1,G9,G10,U13,G18,G19,A20; 2'-F at other pyrimidines except C21 (unmodified as printed); 2'-OH at G5,G7,A14
B24: SEQ ID NO: 2 (ssRNA)
RNA: GGGACACAAUGGACGUCUGUGUGGUUUAUCCGGAUGUCCGUCGUCCUCUGUCAUGUAACGGCCGACAUGAGAG
modifications: 2'-F pyrimidines; 16-nt poly A at 3' end for SPR
B25: SEQ ID NO: 3 (ssRNA)
RNA: B24 RNA with A53G
modifications: 2'-F pyrimidines; 16-nt poly A at 3' end for SPR
B26: SEQ ID NO: 6 (ssRNA)
RNA: B24 RNA with U35C, A53G
modifications: 2'-F pyrimidines; 16-nt poly A at 3' end for SPR
B27: SEQ ID NO: 5 (ssRNA)
RNA: B24 RNA with U49G
modifications: 2'-F pyrimidines; 16-nt poly A at 3' end for SPR
B28: SEQ ID NO: 4 (ssRNA)
RNA: B24 RNA with U51C
modifications: 2'-F pyrimidines; 16-nt poly A at 3' end for SPR

Target: T1, midkine (AP-MK) (Homo sapiens, UniProt P21741 P21741:23-143)
T1 chain: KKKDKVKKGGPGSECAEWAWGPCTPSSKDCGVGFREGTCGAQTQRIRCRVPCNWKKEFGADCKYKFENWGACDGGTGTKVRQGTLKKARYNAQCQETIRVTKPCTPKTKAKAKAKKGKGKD
Test: inhibition; AP-MK binding to TNB1 cells
Settings: tags: alkaline phosphatase fusion, APtag-5 vector (GenHunter), 293T culture supernatant
Method: (§1) Using the above-mentioned AP-MK, a binding inhibitory experiment relative to TNB1 cell, which is a human neuroblastoma cell, was performed. TNB1 cells were seeded at 1×10⁵ cells/well on a 6-well plate coated with collagen I. The next day, the cells were washed with 1 mL of HBHA (HBSS+0.5 mg/mL BSA+20 mM HEPES pH 7.0), 1 U/mL AP or AP-MK, and further, the aptamer shown in SEQ ID NO: 7-1 at a final concentration of 100 nM were added and the mixture was maintained at room temperature for 90 min. After washing 5 times with 1 mL of HBHA, 200 μL of Cell Lysis Buffer (manufactured by GenHunter) was added and the mixture was stirred for 5 min. The cells were scraped with a Scraper and placed in an Eppendorf tube, vortexed for 10 sec and centrifuged at 15000 rpm for 2 min. The supernatant was recovered, and heated at 65° C. for 10 min to inactivate endogenous AP. Using 50 μL, color development was performed in the same manner as above (15 min) and the activity of AP was calculated.
(§2) An altered form of SEQ ID NO: 7-1 was produced, and AP-MK binding inhibitory experiment was performed using HepG2 and TNB1 cells and in the same manner as above. The sequences of the altered forms actually produced are shown below. While Poly dA for BIAcore measurement is added to the 3′-terminus of the aptamers shown in SEQ ID NO: 9 and SEQ ID NO: 9-1-5, an influence on the activity is not expected. The 50% inhibitory concentration (IC₅₀) was determined from the concentrations at two, above and below points sandwiching the 50% inhibitory activity (Table 2).

Binder	IC50 [nM]
GCCAUCGCAAUGGUGAGUGGUUUAUCCGCCUGCGCAUGGC (ssRNA, 2'-OMe at 1-3 and 38-40; 2'-F at all other pyrimidines; other purines 2'-OH) [SEQ ID NO: 7-1]	18
GCCAUCGCAAUGGUGAGUGGUUUAUCCGCCUGCGCAUGGC (ssRNA, 5' 40PEG2ts; 3' idT; 2'-OMe at 1-3 and 38-40; 2'-F at all other pyrimidines) [SEQ ID NO: 7-2]	26
B1	11
B2	18

Target: T1, midkine (AP-MK)
Test: inhibition; AP-MK binding to HepG2 cells
Settings: tags: alkaline phosphatase fusion, APtag-5 vector (GenHunter), 293T culture supernatant
Method: as §1, §2

Binder	IC50 [nM]
B3	< 2
B4	< 2
B5	3.3
B6	1.6
B7	19
B8	4.1
B9	13
B10	3
GCCAUCGCAAUGGUGAGUGGUUUAUCCGCCUGCGCAUGGC (ssRNA, 2'-OMe at 1-3 and 38-40; 2'-F at all other pyrimidines; other purines 2'-OH) [SEQ ID NO: 7-1]	6
GCCAUCGCAAUGGUGAGUGGUUUAUCCGCCUGCGCAUGGC (ssRNA, 5' 40PEG2ts; 3' idT; 2'-OMe at 1-3 and 38-40; 2'-F at all other pyrimidines) [SEQ ID NO: 7-2]	4.9
B1	1.7
B11	< 2
B12	< 2
B13	< 2
B14	4.7
B2	3.6
B15	< 2
B16	6.3
B17	7.8

target: T2, midkine (MK) (Homo sapiens, UniProt P21741 P21741:21-143); test: SPR; strongly binds; 0.5 uM MK analyte; solution A (Na, K, Ca, Mg, Tris pH 7.6); settings: tags: produced in yeast
T2 sequence: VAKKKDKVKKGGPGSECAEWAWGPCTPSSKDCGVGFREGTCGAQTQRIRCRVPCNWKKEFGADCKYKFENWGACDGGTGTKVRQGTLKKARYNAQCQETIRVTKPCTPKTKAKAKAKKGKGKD
Method: (§3) The binding activities of the oligonucleotides shown by SEQ ID NO:1 to 6 obtained in Examples 1 and 2 for MK were evaluated by a surface plasmon resonance method. The measurements were performed using BIAcore2000, manufactured by BIAcore. The sensor chip used was the SA chip, which had streptavidin immobilized thereon. Bound thereto was about 1000 RU of a 16-nucleotide Poly dT with biotin bound to the 5′ end thereof. […] 70 μL of MK for analyte, prepared at 0.5 μM, was injected.

Binder	binding result
B18	binds

Target: T1, midkine (AP-MK)
Test: inhibition; AP-MK binding to HepG2, 500 nM aptamer
Settings: tags: alkaline phosphatase fusion, APtag-5 vector (GenHunter), 293T culture supernatant
Method: as §1
An experiment similar to the above was performed using HepG2 cells which are human liver cancer-derived cells. It is already known that MK is deeply involved in the growth and inhibition of apoptosis of HepG2 cells (Ohuchida et al., Cancer 100, 2430-2436, 2004; Dai et al., World J. Gastroenterol. 15, 1966-1972, 2009). When the aptamer was added to the system, the binding of AP-MK and HepG2 was inhibited (Table 1).

Binder	activity [% inhibition]
B19	76
GCCAUCGCAAUGGUGAGUGGUUUAUCCGCCUGCGCAUGGC (ssRNA, 2'-OMe at 1-3 and 38-40; 2'-F at all other pyrimidines; other purines 2'-OH) [SEQ ID NO: 7-1]	93
B20	65
B21	61
B22	58
B23	61

target: T2, midkine (MK); test: SPR; strongly binds; 0.5 uM MK analyte; solution A; settings: tags: produced in yeast
Method: as §3

Binder	binding result
B24	binds
B25	binds
B26	binds
B27	binds
B28	binds

target: T2, midkine (MK); test: SPR; confirmed MK binding, as in Example 3; settings: tags: produced in yeast
Method: as §3
Those aptamers were evaluated by the surface plasmon resonance method in the same manner as in Example 3, and they were confirmed to have MK binding activity.

Binder	binding result
B19	binds
GCCAUCGCAAUGGUGAGUGGUUUAUCCGCCUGCGCAUGGC (ssRNA, 2'-OMe at 1-3 and 38-40; 2'-F at all other pyrimidines; other purines 2'-OH) [SEQ ID NO: 7-1]	binds
GCCAUCGCAAUGGUGAGUGGUUUAUCCGCCUGCGCAUGGC (ssRNA, 2'-F pyrimidines) [SEQ ID NO: 7]	binds
GUCUGUGUGGUUUAUCCGGAC (ssRNA, 2'-F pyrimidines) [SEQ ID NO: 8]	binds
B20	binds
B21	binds
B22	binds
B23	binds
